In patent US20220026429A1, “COMPOSITIONS AND METHODS OF ALTERING A NUCLEIC ACID WITH RIBONUCLEASE” (The Research Foundation for the State University of New York, priority 2020, published 2022):

What was measured:
[1] = target: T1, RNase H (Escherichia coli, UniProt P0A7Y4); assay: DNA nanoswitch RNase H inhibition assay (gel readout); type: biochemical; conditions: nanoswitch incubated with different concentrations of kanamycin, then RNase H (0.5 U) added; FIG. 4F; read-out: IC50 value, inhibition of the RNA cleavage activity of RNase H
T1 construct: purchased New England Biolabs (NEB)
T1 sequence (P0A7Y4 whole entry): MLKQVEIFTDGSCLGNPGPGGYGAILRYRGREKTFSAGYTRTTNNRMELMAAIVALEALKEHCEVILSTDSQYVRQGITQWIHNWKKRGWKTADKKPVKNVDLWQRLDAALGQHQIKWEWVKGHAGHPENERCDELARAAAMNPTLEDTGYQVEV
Method: (§1) Locked nanoswitches, such as DNA-nanoswitch-nucleic acid constructs were first mixed with RNase H buffer (1× final) and placed at 37° C. 1 μl of RNase H (different units/μl) was added to 10 μl of locked nanoswitches such as DNA-nanoswitch-nucleic acid constructs and incubated at 37° C. For sensitivity experiments, samples were incubated for 1 hour at 37° C. For time series experiments, RNase H enzyme was added at different time points (from 16 mins to 0 min). After incubation, samples were mixed with 1 μl GelRed (1×final) and 2 μl loading dye (15% Ficoll, 0.1% bromophenol blue), and run on 0.8% agarose gels. A similar protocol was used for the other enzymes.
(§2) Nanoswitches were run in 0.8% agarose gels, cast from molecular biology grade agarose (Fisher BioReagents) dissolved in 0.5×Tris-borate EDTA (TBE). Gels were typically run at 75 V (constant voltage) at room temperature. Samples were pre-stained by mixing 1× GelRed stain with the samples before loading. Gels were imaged with a Bio-Rad Gel Doc XR+gel imager and analyzed using ImageJ.
Next, the potential of assays of the present disclosure was tested for screening RNase H inhibitors. […] To further make a rapid readout, a start-to-finish assay was performed within 15 mins, by incubating the nanoswitches with RNase H for 5 mins followed by agarose gel electrophoresis for 10 mins (FIG. 4G). […]

[2] = system: locked nanoswitches (RNA lock strand); assay: DNA nanoswitch RNase activity assay, panel of RNases; type: biochemical; conditions: agarose gel readout, FIG. 4E
Method: as §1, §2
As a step toward testing ribonuclease presence in biological samples, a known concentration of RNase H was spiked into fetal bovine serum (FBS) and cell lysates extracted from human (HeLa) and murine (C2C12) cell lines. RNase detection was preserved in 10% FBS and cell lysates with the unlocking of the DNA nanoswitch in both biofluids (FIGS. 4B-4C).

Row | Molecule | IC50 [1] | response of the locked nanoswitches (unlooping) to RNases [2]
1 | NC[C@H]1O[C@H](O[C@H]2[C@H](O)[C@@H](O[C@H]3O[C@H](CO)[C@@H](O)[C@H](N)[C@H]3O)[C@H](N)C[C@@H]2N)[C@H](O)[C@@H](O)[C@@H]1O [kanamycin] | 30.6 mM | –
2 | RNase A: endonucleases from Enzyme Class EC 3.1.27.5 (protein, UniProt P61823 27-150, looked up) Ribonuclease pancreatic: KETAAAKFERQHMDSSTSAASSSNYCNQMMKSRNLTKDRCKPVNTFVHESLADVQAVCSQKNVACKNGQTNCYQSYSTMSITDCRETGSSKYPNCAYKTTQANKHIIVACEGNPYVPVHFDASV | – | high levels of unlooping
3 | RNase T: ribonuclease enzyme purchased from New England Biolabs (protein, UniProt P30014 1-215, looked up) Ribonuclease T: MSDNAQLTGLCDRFRGFYPVVIDVETAGFNAKTDALLEIAAITLKMDEQGWLMPDTTLHFHVEPFVGANLQPEALAFNGIDPNDPDRGAVSEYEALHEIFKVVRKGIKASGCNRAIMVAHNANFDHSFMMAAAERASLKRNPFHPFATFDTAALAGLALGQTVLSKACQTAGMDFDSTQAHSALYDTERTAVLFCEIVNRWKRLGGWPLSAAEEV | – | no activity
